Tests used:
Assay in all cases: peptide array on glass slide, fluorescent secondary antibody
[1] = target: IsaA oligopeptide SEQ ID NO: 10 (Staphylococcus aureus)
[2] = target: IsaA oligopeptide SEQ ID NO: 11 (Staphylococcus aureus)
[3] = target: IsaA oligopeptide SEQ ID NO: 12 (Staphylococcus aureus)
[4] = target: IsaA oligopeptide SEQ ID NO: 15 (Staphylococcus aureus)
[5] = target: IsaA oligopeptide SEQ ID NO: 17 (Staphylococcus aureus)
[6] = target: IsaA oligopeptide SEQ ID NO: 18 (Staphylococcus aureus)
[7] = target: IsaA oligopeptide SEQ ID NO: 19 (Staphylococcus aureus)
[8] = target: IsaA oligopeptide SEQ ID NO: 20 (Staphylococcus aureus)
[9] = target: IsaA oligopeptide SEQ ID NO: 21 (Staphylococcus aureus)
[10] = target: IsaA oligopeptide SEQ ID NO: 22 (Staphylococcus aureus)
[11] = target: IsaA oligopeptide SEQ ID NO: 23 (Staphylococcus aureus)
[12] = target: IsaA oligopeptide SEQ ID NO: 24 (Staphylococcus aureus)
[13] = target: IsaA oligopeptide SEQ ID NO: 25 (Staphylococcus aureus)
[14] = target: IsaA oligopeptide SEQ ID NO: 26 (Staphylococcus aureus)
[15] = target: IsaA oligopeptide SEQ ID NO: 27 (Staphylococcus aureus)
[16] = target: IsaA oligopeptide SEQ ID NO: 33 (Staphylococcus aureus)
[17] = target: IsaA oligopeptide SEQ ID NO: 34 (Staphylococcus aureus)
[18] = target: IsaA oligopeptide SEQ ID NO: 35 (Staphylococcus aureus)
[19] = target: IsaA oligopeptide SEQ ID NO: 37 (Staphylococcus aureus)
[20] = target: IsaA oligopeptide SEQ ID NO: 38 (Staphylococcus aureus)
[21] = target: IsaA oligopeptide SEQ ID NO: 39 (Staphylococcus aureus)
[22] = target: IsaA oligopeptide SEQ ID NO: 41 (Staphylococcus aureus)
[23] = target: IsaA oligopeptide SEQ ID NO: 42 (Staphylococcus aureus)
[24] = target: IsaA oligopeptide SEQ ID NO: 43 (Staphylococcus aureus)
[25] = target: IsaA oligopeptide SEQ ID NO: 44 (Staphylococcus aureus)
[26] = target: IsaA oligopeptide SEQ ID NO: 45 (Staphylococcus aureus)
[27] = target: IsaA oligopeptide SEQ ID NO: 46 (Staphylococcus aureus)
[28] = target: IsaA oligopeptide SEQ ID NO: 47 (Staphylococcus aureus)
[29] = target: IsaA oligopeptide SEQ ID NO: 48 (Staphylococcus aureus)
[30] = target: IsaA oligopeptide SEQ ID NO: 49 (Staphylococcus aureus)
[31] = target: IsaA oligopeptide SEQ ID NO: 50 (Staphylococcus aureus)
[32] = target: IsaA oligopeptide SEQ ID NO: 51 (Staphylococcus aureus)
[33] = target: IsaA oligopeptide SEQ ID NO: 52 (Staphylococcus aureus)
[34] = target: IsaA oligopeptide SEQ ID NO: 53 (Staphylococcus aureus)
[35] = target: IsaA oligopeptide SEQ ID NO: 54 (Staphylococcus aureus)
[36] = target: IsaA oligopeptide SEQ ID NO: 55 (Staphylococcus aureus)
[37] = target: IsaA oligopeptide SEQ ID NO: 56 (Staphylococcus aureus)
[38] = target: IsaA oligopeptide SEQ ID NO: 57 (Staphylococcus aureus)
[39] = target: IsaA oligopeptide SEQ ID NO: 58 (Staphylococcus aureus)
[40] = target: IsaA oligopeptide SEQ ID NO: 59 (Staphylococcus aureus)
[41] = target: IsaA oligopeptide SEQ ID NO: 61 (Staphylococcus aureus)
[42] = target: IsaA oligopeptide SEQ ID NO: 62 (Staphylococcus aureus)
[43] = target: IsaA oligopeptide SEQ ID NO: 63 (Staphylococcus aureus)
[44] = target: IsaA oligopeptide SEQ ID NO: 64 (Staphylococcus aureus)
[45] = target: IsaA oligopeptide SEQ ID NO: 9 (Staphylococcus aureus)

control antibodies (peptide array) (antibody)
Binding (fluorescence intensity) [1]: 160 | Binding (fluorescence intensity) [2]: -11 | Binding (fluorescence intensity) [3]: -22 | Binding (fluorescence intensity) [4]: 107 | Binding (fluorescence intensity) [5]: 48 | Binding (fluorescence intensity) [6]: -119 | Binding (fluorescence intensity) [7]: 83.7 | Binding (fluorescence intensity) [8]: 106 | Binding (fluorescence intensity) [9]: 182 | Binding (fluorescence intensity) [10]: 26.3 | Binding (fluorescence intensity) [11]: 367 | Binding (fluorescence intensity) [12]: 79.3 | Binding (fluorescence intensity) [13]: -61.7 | Binding (fluorescence intensity) [14]: 261 | Binding (fluorescence intensity) [15]: 81 | Binding (fluorescence intensity) [16]: -0.7 | Binding (fluorescence intensity) [17]: 98.7 | Binding (fluorescence intensity) [18]: 110 | Binding (fluorescence intensity) [19]: -27.3 | Binding (fluorescence intensity) [20]: 97.7 | Binding (fluorescence intensity) [21]: 109 | Binding (fluorescence intensity) [22]: 29.3 | Binding (fluorescence intensity) [23]: 35.7 | Binding (fluorescence intensity) [24]: 44.3 | Binding (fluorescence intensity) [25]: 114 | Binding (fluorescence intensity) [26]: -4.3 | Binding (fluorescence intensity) [27]: -24.3 | Binding (fluorescence intensity) [28]: 14.7 | Binding (fluorescence intensity) [29]: 398 | Binding (fluorescence intensity) [30]: 40 | Binding (fluorescence intensity) [31]: -49.7 | Binding (fluorescence intensity) [32]: 58 | Binding (fluorescence intensity) [33]: -60 | Binding (fluorescence intensity) [34]: 70.3 | Binding (fluorescence intensity) [35]: -51.7 | Binding (fluorescence intensity) [36]: 36 | Binding (fluorescence intensity) [37]: -17.3 | Binding (fluorescence intensity) [38]: 313 | Binding (fluorescence intensity) [39]: 46.3 | Binding (fluorescence intensity) [40]: 132 | Binding (fluorescence intensity) [41]: 30.3 | Binding (fluorescence intensity) [42]: 6.3 | Binding (fluorescence intensity) [43]: 57.7 | Binding (fluorescence intensity) [44]: 42 | Binding (fluorescence intensity) [45]: 70

Source: patent US20160109449A1 (JULIUS MAXIMILIANS UNIVERSITAET WUERZBURG, published 2016)
